{"source": "paper PMC8216460", "about": "(Nucleic Acids Research, 2021)", "molecules": {"B1": {"name": "VcDnaB, replicative helicase DnaB from Vibrio cholerae (enzyme)", "chain": "MADPRTDNRNRKIPDAQVDAIKVPPHSLEAEQSVIGGLLLDNERWDTVSEHVMTQDFYSRPHRLIFDGVKSILEAGKPLDLITLSEYLEQREQLEDVGGFAYLADLAKNTPSAANINAYAEIVAERALVRNLIGVANEIADAGYDPQGRNAEDLLDLAESKVFAIAEARTSENEGPKNVDSILERTLERIELLYKTPQDGVTGVNTGFTDLNKKTAGLQGSDLIIVAARPSMGKTTFAMNLCENAAMEQDKPVLIFSLEMPAEQIMMRMLASLSRVDQTKIRTGQLDDEDWARISSTMGILMEKKNMYIDDSSGLTPTEVRSRARRIAREHGGLSLIMVDYLQLMRVPALTDNRTLEIAEISRSLKALAKELNVPVVALSQLNRSLEQRADKRPVNSDLRESGSIEQDADLIMFIYRDEVYHPDSPLKGTAEIIIGKQRNGPIGSVRLTFQGHYSRFDNYAGPAFDDE"}}, "key": {"[1]": {"molecular_target": "VcDnaB, replicative helicase DnaB from Vibrio cholerae (Vibrio cholerae)", "assay": "SEC-SAXS"}, "[2]": {"molecular_target": "VcDnaB, replicative helicase DnaB from Vibrio cholerae (Vibrio cholerae)", "assay": "SPR"}, "[3]": {"molecular_target": "the molecule itself", "assay": "crystal structure"}, "[4]": {"molecular_target": "the molecule itself", "assay": "SEC-MALS"}, "[5]": {"molecular_target": "EcDnaB^G299S (E. coli, UniProt P0ACB0 1-471, G299S)", "assay": "SPR"}, "[6]": {"molecular_target": "VcDnaB^S296G (Vibrio cholerae, UniProt A0A085R2T8 1-468, S296G)", "assay": "SPR"}, "[7]": {"molecular_target": "B1", "assay": "SPR"}}}
{"molecule": "VcDciA, DciA from Vibrio cholerae (natural protein)", "values": [{"measurement": "stoichiometry N (VcDciA per VcDnaB hexamer)", "setting": "[1]", "result": 3}, {"measurement": "stoichiometry N (VcDciA per 6 VcDnaB)", "setting": "[2]", "result": 3}]}
{"molecule": "B1", "values": [{"measurement": "stoichiometry N", "setting": "[3]", "result": 6, "unit": "subunits"}]}
{"molecule": "VcDnaB, replicative helicase DnaB from Vibrio cholerae (enzyme) MADPRTDNRNRKIPDAQVDAIKVPPHSLEAEQSVIGGLLLDNERWDTVSEHVMTQDFYSRPHRLIFDGVKSILEAGKPLDLITLSEYLEQREQLEDVGGFAYLADLAKNTPSAANINAYAEIVAERALVRNLIGVANEIADAGYDPQGRNAEDLLDLAESKVFAIAEARTSENEGPKNVDSILERTLERIELLYKTPQDGVTGVNTGFTDLNKKTAGLQGSDLIIVAARPSMGKTTFAMNLCENAAMEQDKPVLIFSLEMPAEQIMMRMLASLSRVDQTKIRTGQLDDEDWARISSTMGILMEKKNMYIDDSSGLTPTEVRSRARRIAREHGGLSLIMVDYLQLMRVPALTDNRTLEIAEISRSLKALAKELNVPVVALSQLNRSLEQRADKRPVNSDLRESGSIEQDADLIMFIYRDEVYHPDSPLKGTAEIIIGKQRNGPIGSVRLTFQGHYSRFDNYAGPAFDDE", "values": [{"measurement": "stoichiometry N", "setting": "[4]", "result": 6}]}
{"molecule": "EcDnaC, helicase loader DnaC from E. coli (natural protein) MKNVGDLMQRLQKMMPAHIKPAFKTGEELLAWQKEQGAIRSAALERENRAMKMQRTFNRSGIRPLHQNCSFENYRVECEGQMNALSKARQYVEEFDGNIASFIFSGKPGTGKNHLAAAICNELLLRGKSVLIITVADIMSAMKDTFRNSGTSEEQLLNDLSNVDLLVIDEIGVQTESKYEKVIINQIVDRRSSSKRPTGMLTNSNMEEMTKLLGERVMDRMRLGNSLWVIFNWDSYRSRVTGKEY", "values": [{"measurement": "fold change of the dissociation rate against EcDnaB", "setting": "[5]", "result": 2, "unit": "fold"}, {"measurement": "binding result", "setting": "[6]", "result": "binds"}, {"measurement": "binding result", "setting": "[7]", "result": "binds"}]}
